# Data taken from patent EP4644419A1 (Hangzhou Zhongmeihuadong Pharmaceutical Co., Ltd., dated 2025).
# Changes are numbered by the printed parent chain. Where “and” joins values, the source holds several entries; their conditions need not be identical. Identical values can stand only once.
# T1: human CD112R antigen protein huCD112R-His (Acro Biosysterm, PVG-H52H4) (human, UniProt Q6DKI7 41-171)
# T1 construct: purchased; also called human antigen protein; not shown: His tag
# T1 sequence (looked up): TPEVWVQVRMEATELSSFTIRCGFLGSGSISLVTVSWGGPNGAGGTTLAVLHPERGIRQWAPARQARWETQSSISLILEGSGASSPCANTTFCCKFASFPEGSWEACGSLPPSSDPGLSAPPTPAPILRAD
# T2: monkey antigen protein (monkey CD112R, Uniprot ID: A0A2K5WVV8) (monkey, UniProt A0A2K5WVV8 41-171)
# T2 sequence: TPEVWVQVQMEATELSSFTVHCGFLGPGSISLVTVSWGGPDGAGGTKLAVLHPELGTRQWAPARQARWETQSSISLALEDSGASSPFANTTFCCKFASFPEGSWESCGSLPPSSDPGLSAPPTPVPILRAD
# T3: human CD112R on GS-J2C/CD112R effector cells (human, UniProt Q6DKI7 1-326)
# T3 sequence (looked up): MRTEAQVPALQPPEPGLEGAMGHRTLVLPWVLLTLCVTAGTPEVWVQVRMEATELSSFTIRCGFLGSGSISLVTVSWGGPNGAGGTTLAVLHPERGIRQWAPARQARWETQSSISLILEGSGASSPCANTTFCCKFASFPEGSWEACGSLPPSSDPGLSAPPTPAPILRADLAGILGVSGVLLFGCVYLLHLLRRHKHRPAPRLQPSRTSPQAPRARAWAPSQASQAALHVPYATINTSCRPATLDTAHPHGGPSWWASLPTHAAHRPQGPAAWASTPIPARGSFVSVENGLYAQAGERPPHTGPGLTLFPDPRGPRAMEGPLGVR
# T4: human CD112R on antigen-specific CD8+ T cells (human, UniProt Q6DKI7 1-326)
# T4 sequence (looked up): T3 sequence (looked up)
# B1: C67 (antibody, human IgG1, kappa, V domains shown)
# VH: EAQLQQSGPELVKPGASVKISCKASGYTFTDYYMNWVKQSHGKSLDWIGDINPDNGGSTYNQKFKGKATLTVDKSSSTAYMELRSLTSEDSAVYYCSASGPPYVLLDYWGQGTSVIVSS
# VL: DIQMTQSPASLSASVGETVTITCQTSENIYSYLAWYQQKQGKSPQLLVYNTQTLAEGVPSRFSGSRSGAQFSLKINSLQPEDFGSYYCQHHYGVPLTFGAGTKLELKR
# B2: C55 (antibody, human IgG1, kappa, V domains shown)
# VH: EVQLQQSGPELVKPGASVKISCKASGYTFTDYYMSWVKQSHGKSLEWIGDVNPNNGDTSYNQKFKGKATLTVDKSSSTAYMELRSLTSEDSAVYYCAASGLPYVLMDYWGQGTSVTVSS
# VL: B1 VL with Q24R, T25A, Y30N, Q52K, A55T, G57D, R66G, A69T, V94T, A100G
# B3: C129 (antibody, human IgG1, kappa, V domains shown)
# VH: QVQLQQSGAELMTPGSSVKLSCKATGYTFTDYWIEWVKKRPGHGLEWIGEILPGYISTNYNEKFKDKATFTADTSSNTTYMQLSSLTSEDSAVYYCVLIVTTYYYFMDYWGQGTSVTVSS
# VL: QIVLTQSPAIMSASPGEKVTITCSASSSVTYMHWFQQKPGTSPKLWIYSTSNLASGVPVRFSGSGSGTSYSLTISRMEAEDAATYYCQQRSSYPWTFGGGTKLEIKR
# B4: C57 (antibody, human IgG1, kappa, V domains shown)
# VH: EVQLQQSGPVLVKPGASVKMSCKASGYIFTDYYMHWVKQSHGKSLEWIGIINPYNGDTSYNQKFKDKATLTVDKSSSTAYMELNSLTSEDSAVYYCARDSSNVGNAMDYWGQGTSVTVSS
# VL: DIQMTQTTSSLSASLGDRVTISCRASQDISNYLNWYLQKPDGTIKLLIYYSSRLHSGVPSRFSGSGSGTDYSLTISNLEQEDIATYFCQQGYTLPRTFGGGTKLEIIR
# B5: C64 (antibody, human IgG1, kappa, V domains shown)
# VH: EVMLVESGGDLVKPGGSLKLSCAASGFTFSSYFMSWVRQTPEKRLEWVATISGGGDKTYYLDILKGRFTISRDNAKNTLYLQMSSLRSEDTALYYCARHEDYAWYAMDYWGQGTSVTVSS
# VL: QIVLTQSPAIMSASPGEKVTMTCSASSSVNYIYWYQQKPGSSPRLLIYDTSNLASGVPVRFSGSGSGTSYSLTISRMEAEDAATYYCQQWSSYPLTFGAGTKLELKR
# B6: C62 (antibody, human IgG1, kappa, V domains shown)
# VH: EVMLVESGGGLVKPGGSLKLSCAASGFSFSSYSMSWVRQTPEKRLECVATIGGVGGNTYYPDSVKGRFSISRDNAKNTLYLQMSSLRSEDTALYYCARHEDYYYYAMDYWGQGTSVTVSS
# VL: B5 VL with S26N, S28T, N30S, S71Y, Y93F, L95F, A99S, L105I
# B7: C63 (antibody, human IgG1, kappa, V domains shown)
# VH: EVMLVESGGGLVKPGGSLKLSCAASGFIFSSYIMSWVRQTPEKRLEWVATIRGGGGNTYYLDSVKGRFIISRDNAKNNLYLQMSSLRSEDTALYYCARHEDYEWYAMDNWGQGTSVTVSS
# VL: B5 VL with M21L, S26R, N30S, I32M, R44K
# B8: C138 (antibody, human IgG1, kappa, V domains shown)
# VH: EVQLVESGGGLVKPGGSLKLSCAASGFTFSSYAMSWVRQTPAKRLEWVATITSGDIRTYYPDTVKGRFTISRDNAKNTLYLQMRSLRSEDTAMYYCVGHDDFHFYAMDYWGQGTSVTVSS
# VL: B5 VL with N30S, I32L, I74L
# B9: C124 (antibody, human IgG1, kappa, V domains shown)
# VH: EVQLVESGGGLVKPGGSLKLSCAASGFTFSSFAMSWVRQTPAKRLESVATINNGGINTYYPDTVKGRFTVSRDNAKNTLYLQMSSLRSEDTAMYYCARHDDFLYYAMDYWGQGTSVTVSS
# VL: B5 VL with N30S, I32M, S91T
# B10: C71 (antibody, human IgG1, kappa, V domains shown)
# VH: B5 VH with M3I, D10G, L18R, K57N, L61P, I63S, L64V, A103E
# VL: B5 VL with A13T, N30S, S91T
# B11: anti-CD112R antibody CHA.7.518 (antibody, V domains shown)
# VH: QVQLVQSGAEVKKPGASVKVSCKASGYTFTDYNINWVRQAPGQGLEWMGYIYPYIGGSGYAQKFQGRVTMTRDTSTSTVYMELSSLRSEDTAVYYCAREDKTARNAMDYWGQGTLVTVSS
# VL: DIQMTQSPSSLSASVGDRVTITCRVSENIYSNLAWYQQKPGKAPKLLIYEATNLAEGVPSRFSGSGSGTDFTLTISSLQPEDFATYYCQHFWGTPYTFGQGTKLEIKR
# notes: synthesised according to WO/2016/134333; also called Tab-1; Tab 1
# B12: C152 (antibody, human IgG1, kappa, V domains shown)
# VH: QVQLQQSGTILARPGASVKMSCRASDYTFTDYWIQWIKQRPGQGLEWIGAIFPENGDTRYTQKFKGRATLTADKSSSTAYMQVNSLTSEDSAVYYCATFINYVDYWGQGTTLTVSS
# VL: QIVLIQSPAIMSASPGEKVTMTCSASSSVNNIHWYQQKSGTSPKRWIYDTTKLTSGVPARFSGSGSGTSYSLTISSMEAEDAATYYCQQWNINPYTFGGGTKLEIKR
# B13: C132 (antibody, human IgG1, kappa, V domains shown)
# VH: QVQLQQSGAELMKPGSSVNLSCKATDYTFTDYWINWVKQRPGHGLEWIGEILPGSVTTNYNEKFRGKATFTADTSSNTAYMQLSSLTSEDSAVYFCARGSDYSYYAMDYWGQGTSVTVSS
# VL: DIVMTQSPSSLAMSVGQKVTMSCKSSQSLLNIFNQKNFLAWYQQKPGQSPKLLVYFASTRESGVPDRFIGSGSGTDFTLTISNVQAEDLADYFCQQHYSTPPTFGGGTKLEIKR
# B14: C1 (antibody, human IgG1, kappa, V domains shown)
# VH: QVHLQQSGPELVKPGASLKISCKASGYTFTDYYLNWVKQRPGQGLEWIGWIFPGSESTFYNEKFKGKATLTVDKSSSTAYMLLNSLTSEDSAVYFCTRDGGLRGPFDYWGQGTTLTVSS
# VL: DIQLTQSPSSLSASLGGKVTITCKASQDINKYIAWCQHKPGKGPRLLIHYTSTLHPGIPSRFSGSGSGRDYSFSISNLEPEDSATYYCLQYDYLLTFGGGTKLEIKR
# B15: C155 (antibody, human IgG1, kappa, V domains shown)
# VH: EVQLVESGGGLVKPGGSLRLSCAASGFTFSDYYMYWVRQAPGKGLEWVATISDAGGYTYYPDSVKGRFTISRDNAKNSLYLQMNSLRAEDTAVYYCGREDLWGQGTLVTVSS
# VL: DIQMTQSPSSLSASVGDRVTITCRASQDIGYSLNWFQQKPGKAPRRLIYATSRLDSGVPKRFSGSGSGTDFTLTISSLQPEDFATYYCLQYASFPYTFGGGTKLEIKR
# B16: C154 (antibody, human IgG1, kappa, V domains shown)
# VH: B15 VH with A49S, G97A
# VL: B15 VL with R45K
# B17: C156 (antibody, human IgG1, kappa, V domains shown)
# VH: B15 VH with Y95F
# VL: B15 VL with R45K
# Molecular target: T1, human CD112R antigen protein …
# Test: ELISA, huCD112R-His coated on plate
row,EC50 [pM],Binder
1,60,B1
2,56,B2
3,34,B3
4,34,B4
5,34,B5
6,32,B6
7,54,B7
8,39,B8
9,33,B9
10,37,B10
11,34,B11
12,82,B12
13,38,B13
14,75,B14

# Molecular target: T2, monkey antigen protein (monkey CD112R, …)
# Test: ELISA, monkey antigen protein (as Example 6.1)
row,EC50 [pM],Binder
1,80,B1
2,1290,B2
3,77,B4
4,54,B5
5,43,B6
6,90,B7
7,52,B8
8,59,B9
9,50,B10
10,74,B12
11,94,B13
12,116,B14

# Molecular target: T3, human CD112R on GS-J2C/CD112R effector …
# Test: cell-based or functional assay
row,"EC50 (Blocking effects of the antibodies, reporter gene method) [µg/mL]",Binder
1,0.03,B1
2,0.052,B2
3,0.045,B3
4,0.061,B4
5,0.039,B5
6,0.032,B6
7,0.023,B7
8,0.029,B8
9,0.015,B9
10,0.029,B10
11,0.065,B11
12,0.082,B12
13,0.082,B15
14,0.071,B16
15,0.096,B17
16,0.024,B13
17,0.045,B14

# Molecular target: T4, human CD112R on antigen-specific CD8+ T …
# Test: cell-based or functional assay
IFN-γ(pg/ml) at 0.5µg/ml antibody [pg/mL],IFN-γ(pg/ml) at 5µg/ml antibody [pg/mL],IFN-γ(pg/ml) at 50µg/ml antibody [pg/mL],Binder
696,718,763,B11
543,641,755,B14

# Molecular target: T1, human CD112R antigen protein …
# Test: SPR (Biacore X100), antibody captured on Protein A chip, huCD112R-His as analyte, 1:1 Langmuir
row,Kd,Binder
1,20 pM,B1
2,506 pM and 334 pM,B2
3,375 pM,B3
4,130 pM and 219 pM,B4
5,800 pM,B5
6,704 pM and 571 pM,B6
7,488 pM,B7
8,550 pM,B8
9,243 pM,B9
10,158 pM,B10
11,346 pM,B11
12,274 pM,B12
13,603 pM,B15
14,724 pM,B16
15,946 pM,B17
16,156 pM,B13
17,905 pM,B14
